The labels stand for the following.
B1: SA302a HC-S31F (antibody, V domains shown)
VH: QVQLQESGPGLVKPSQTLSLTCTVSGYSITFDYNAHWIRQPPGKGLEWIGYIHYSGSTNYNPSLKSRVTISRDTSKNQFSLKLSSVTAADTAVYYCARNYGSIYVNYFDYWGQGTLVTVSS
VL: EIVLTQSPATLSLSPGERATLSCSASSSVSYMYWYQQKPGQAPRPLIYRTSNLASGIPARFSGSGSGTDFTLTISSLEPEDFAVYYCQQYHSYPTFGGGTKVEIK
B2: SA302a HC-S31G (antibody, V domains shown)
VH: QVQLQESGPGLVKPSQTLSLTCTVSGYSITGDYNAHWIRQPPGKGLEWIGYIHYSGSTNYNPSLKSRVTISRDTSKNQFSLKLSSVTAADTAVYYCARNYGSIYVNYFDYWGQGTLVTVSS
VL: EIVLTQSPATLSLSPGERATLSCSASSSVSYMYWYQQKPGQAPRPLIYRTSNLASGIPARFSGSGSGTDFTLTISSLEPEDFAVYYCQQYHSYPTFGGGTKVEIK
B3: SA302a HC-S31M (antibody, V domains shown)
VH: QVQLQESGPGLVKPSQTLSLTCTVSGYSITMDYNAHWIRQPPGKGLEWIGYIHYSGSTNYNPSLKSRVTISRDTSKNQFSLKLSSVTAADTAVYYCARNYGSIYVNYFDYWGQGTLVTVSS
VL: EIVLTQSPATLSLSPGERATLSCSASSSVSYMYWYQQKPGQAPRPLIYRTSNLASGIPARFSGSGSGTDFTLTISSLEPEDFAVYYCQQYHSYPTFGGGTKVEIK
B4: SA302a HC-S31H (antibody, V domains shown)
VH: QVQLQESGPGLVKPSQTLSLTCTVSGYSITHDYNAHWIRQPPGKGLEWIGYIHYSGSTNYNPSLKSRVTISRDTSKNQFSLKLSSVTAADTAVYYCARNYGSIYVNYFDYWGQGTLVTVSS
VL: EIVLTQSPATLSLSPGERATLSCSASSSVSYMYWYQQKPGQAPRPLIYRTSNLASGIPARFSGSGSGTDFTLTISSLEPEDFAVYYCQQYHSYPTFGGGTKVEIK
B5: SA302a HC-S31A (antibody, V domains shown)
VH: QVQLQESGPGLVKPSQTLSLTCTVSGYSITADYNAHWIRQPPGKGLEWIGYIHYSGSTNYNPSLKSRVTISRDTSKNQFSLKLSSVTAADTAVYYCARNYGSIYVNYFDYWGQGTLVTVSS
VL: EIVLTQSPATLSLSPGERATLSCSASSSVSYMYWYQQKPGQAPRPLIYRTSNLASGIPARFSGSGSGTDFTLTISSLEPEDFAVYYCQQYHSYPTFGGGTKVEIK
B6: SA302a HC-S31I (antibody, V domains shown)
VH: QVQLQESGPGLVKPSQTLSLTCTVSGYSITIDYNAHWIRQPPGKGLEWIGYIHYSGSTNYNPSLKSRVTISRDTSKNQFSLKLSSVTAADTAVYYCARNYGSIYVNYFDYWGQGTLVTVSS
VL: EIVLTQSPATLSLSPGERATLSCSASSSVSYMYWYQQKPGQAPRPLIYRTSNLASGIPARFSGSGSGTDFTLTISSLEPEDFAVYYCQQYHSYPTFGGGTKVEIK
B7: SA302a HC-D33H (antibody, V domains shown)
VH: QVQLQESGPGLVKPSQTLSLTCTVSGYSITSHYNAHWIRQPPGKGLEWIGYIHYSGSTNYNPSLKSRVTISRDTSKNQFSLKLSSVTAADTAVYYCARNYGSIYVNYFDYWGQGTLVTVSS
VL: EIVLTQSPATLSLSPGERATLSCSASSSVSYMYWYQQKPGQAPRPLIYRTSNLASGIPARFSGSGSGTDFTLTISSLEPEDFAVYYCQQYHSYPTFGGGTKVEIK
B8: SA302a HC-S31P (antibody, V domains shown)
VH: QVQLQESGPGLVKPSQTLSLTCTVSGYSITPDYNAHWIRQPPGKGLEWIGYIHYSGSTNYNPSLKSRVTISRDTSKNQFSLKLSSVTAADTAVYYCARNYGSIYVNYFDYWGQGTLVTVSS
VL: EIVLTQSPATLSLSPGERATLSCSASSSVSYMYWYQQKPGQAPRPLIYRTSNLASGIPARFSGSGSGTDFTLTISSLEPEDFAVYYCQQYHSYPTFGGGTKVEIK
B9: SA302a HC-S31Q (antibody, V domains shown)
VH: QVQLQESGPGLVKPSQTLSLTCTVSGYSITQDYNAHWIRQPPGKGLEWIGYIHYSGSTNYNPSLKSRVTISRDTSKNQFSLKLSSVTAADTAVYYCARNYGSIYVNYFDYWGQGTLVTVSS
VL: EIVLTQSPATLSLSPGERATLSCSASSSVSYMYWYQQKPGQAPRPLIYRTSNLASGIPARFSGSGSGTDFTLTISSLEPEDFAVYYCQQYHSYPTFGGGTKVEIK
B10: SA302a HC-S31L (antibody, V domains shown)
VH: QVQLQESGPGLVKPSQTLSLTCTVSGYSITLDYNAHWIRQPPGKGLEWIGYIHYSGSTNYNPSLKSRVTISRDTSKNQFSLKLSSVTAADTAVYYCARNYGSIYVNYFDYWGQGTLVTVSS
VL: EIVLTQSPATLSLSPGERATLSCSASSSVSYMYWYQQKPGQAPRPLIYRTSNLASGIPARFSGSGSGTDFTLTISSLEPEDFAVYYCQQYHSYPTFGGGTKVEIK
B11: SA302a HC-D33I (antibody, V domains shown)
VH: QVQLQESGPGLVKPSQTLSLTCTVSGYSITSIYNAHWIRQPPGKGLEWIGYIHYSGSTNYNPSLKSRVTISRDTSKNQFSLKLSSVTAADTAVYYCARNYGSIYVNYFDYWGQGTLVTVSS
VL: EIVLTQSPATLSLSPGERATLSCSASSSVSYMYWYQQKPGQAPRPLIYRTSNLASGIPARFSGSGSGTDFTLTISSLEPEDFAVYYCQQYHSYPTFGGGTKVEIK
B12: SA302a HC-S31T (antibody, V domains shown)
VH: QVQLQESGPGLVKPSQTLSLTCTVSGYSITTDYNAHWIRQPPGKGLEWIGYIHYSGSTNYNPSLKSRVTISRDTSKNQFSLKLSSVTAADTAVYYCARNYGSIYVNYFDYWGQGTLVTVSS
VL: EIVLTQSPATLSLSPGERATLSCSASSSVSYMYWYQQKPGQAPRPLIYRTSNLASGIPARFSGSGSGTDFTLTISSLEPEDFAVYYCQQYHSYPTFGGGTKVEIK
B13: SA302a HC-D33N (antibody, V domains shown)
VH: QVQLQESGPGLVKPSQTLSLTCTVSGYSITSNYNAHWIRQPPGKGLEWIGYIHYSGSTNYNPSLKSRVTISRDTSKNQFSLKLSSVTAADTAVYYCARNYGSIYVNYFDYWGQGTLVTVSS
VL: EIVLTQSPATLSLSPGERATLSCSASSSVSYMYWYQQKPGQAPRPLIYRTSNLASGIPARFSGSGSGTDFTLTISSLEPEDFAVYYCQQYHSYPTFGGGTKVEIK
B14: SA302a HC-S31Y (antibody, V domains shown)
VH: QVQLQESGPGLVKPSQTLSLTCTVSGYSITYDYNAHWIRQPPGKGLEWIGYIHYSGSTNYNPSLKSRVTISRDTSKNQFSLKLSSVTAADTAVYYCARNYGSIYVNYFDYWGQGTLVTVSS
VL: EIVLTQSPATLSLSPGERATLSCSASSSVSYMYWYQQKPGQAPRPLIYRTSNLASGIPARFSGSGSGTDFTLTISSLEPEDFAVYYCQQYHSYPTFGGGTKVEIK
B15: SA302a HC-S31E (antibody, V domains shown)
VH: QVQLQESGPGLVKPSQTLSLTCTVSGYSITEDYNAHWIRQPPGKGLEWIGYIHYSGSTNYNPSLKSRVTISRDTSKNQFSLKLSSVTAADTAVYYCARNYGSIYVNYFDYWGQGTLVTVSS
VL: EIVLTQSPATLSLSPGERATLSCSASSSVSYMYWYQQKPGQAPRPLIYRTSNLASGIPARFSGSGSGTDFTLTISSLEPEDFAVYYCQQYHSYPTFGGGTKVEIK

The target of the assay is T1, human IL-18BP (human, UniProt O95998 31-194).
T1 construct: UniProt printed as 095998; also called hIL-18BP
T1 sequence: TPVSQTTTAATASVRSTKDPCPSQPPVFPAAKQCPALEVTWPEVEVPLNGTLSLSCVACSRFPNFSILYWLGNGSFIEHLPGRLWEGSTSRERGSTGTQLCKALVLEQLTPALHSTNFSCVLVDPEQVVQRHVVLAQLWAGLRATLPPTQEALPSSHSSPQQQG
As to the kind of experiment: BLI, apparent KD.
As for B1, the Kd worked out at 0.79 nM.

Take B2: the Kd is 1.64 nM.

On to B3, for which the Kd is 0.61 nM.

For the molecule B4, the Kd was found to be 0.57 nM.

For the molecule B5, the Kd amounted to 0.92 nM.

For the molecule B6, the Kd is 1.01 nM.

As for B7, the Kd turned out to be 2.99 nM.

As for B8, the Kd was 4.37 nM.

As to B9, the Kd amounted to 0.56 nM.

Consider B10, for which the Kd was determined as 0.98 nM.

Turning to B11, the Kd is 4.97 nM.

With B12, the Kd was found to be 1.02 nM.

With B13, the Kd amounted to 1.66 nM.

As for B14, the Kd was 1.11 nM.

For the molecule B15, the Kd is 1.53 nM.

The values above are taken from patent US20250368745A1 (published 2025).
